Source: patent US20140286960A1 (CANGENE, published 2014)

Target: Staphylococcus aureus alpha-hemolysin (Staphylococcus aureus, UniProt P09616)
Sequence (P09616 27-319 limits assumed): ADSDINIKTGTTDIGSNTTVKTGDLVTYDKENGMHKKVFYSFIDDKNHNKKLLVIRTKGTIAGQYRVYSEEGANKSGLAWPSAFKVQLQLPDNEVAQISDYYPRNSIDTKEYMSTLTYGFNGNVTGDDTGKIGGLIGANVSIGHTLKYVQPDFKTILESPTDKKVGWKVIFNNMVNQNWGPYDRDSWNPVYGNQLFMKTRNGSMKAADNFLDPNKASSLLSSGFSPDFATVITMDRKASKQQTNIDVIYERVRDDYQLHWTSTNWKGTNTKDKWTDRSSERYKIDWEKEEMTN

B1: CAN24G4 monoclonal antibody (antibody, V domains shown)
VH: EVHLQQSGAELVKPGASVRLSCTGSGLDIKDTYIHWVKKRPEQGLEWIGRIDPANGITKYDPKFQGKATVTADTSSNTAYLQFSSLTSEDSAVYYCSSEYYPYPMDYWGQGTSVTVSS
VL: DIKMTQPPSSMYASLGERVTVTCKASQDISSFLTWFQQKPGKSPKILIYRANRVVDGVPSRFSGSGSGHDYSLTISSLESEDMGIYYCLQYDEFPWTFGGGTKLEIK
Kd: 9.4 nM | koff: 0.004 s⁻¹ | kon: 430000 M⁻¹ s⁻¹
